Results as given in publication PMC9922279.

Target: Trimeric polymerase with PB2 71-73A (PB1 WT, PB2 71-73A, strep-tagged PA)
Settings: parent: est. 1.0; read off a plot

Trimeric influenza A virus A/WSN/1933 (H1N1) polymerase (PB1 wild type, PB2, HA-tagged PA) (from UniProt P15659) PB2 71-73A
ratio to parent: 0.5 n-fold of WT
